{"source": "patent US20200040088A1", "about": "(Kyowa Kirin, published 2020)", "binders": {"B1": {"name": "rat/mouse chimera type 1B12 antibody (antibody, V domains shown)", "VH": "VQLVESDGGLVQPGRSLKLSCAASGFTFSDFYMAWVRQAPTKGLEWVATISYDGSSAYYRDSVKGRFTISRDNAKSTLYLQMDSLSSEDTATYYCARHDGYYPFDYWGQGVMVTVSS", "VL": "DIRMTQSPASLSASLGETVNIECLASEDIYSDLAWYQQKPGKSPQLLIYDANSLQNGVPSRFSGSGSGTQYSLKINSLQSEDVATYFCQQYNNYWTFGGGTKLELK", "notes": "also called cm1B12 antibody; cm1B12"}}, "key": {"[1]": {"biological_target": "T1, Mouse IL-5Rα-Fc (R&D Systems Inc.) (mouse, UniProt P21183 18-339)", "T1 construct": "Bought reagent; not shown: Fc part", "T1 sequence (looked up)": "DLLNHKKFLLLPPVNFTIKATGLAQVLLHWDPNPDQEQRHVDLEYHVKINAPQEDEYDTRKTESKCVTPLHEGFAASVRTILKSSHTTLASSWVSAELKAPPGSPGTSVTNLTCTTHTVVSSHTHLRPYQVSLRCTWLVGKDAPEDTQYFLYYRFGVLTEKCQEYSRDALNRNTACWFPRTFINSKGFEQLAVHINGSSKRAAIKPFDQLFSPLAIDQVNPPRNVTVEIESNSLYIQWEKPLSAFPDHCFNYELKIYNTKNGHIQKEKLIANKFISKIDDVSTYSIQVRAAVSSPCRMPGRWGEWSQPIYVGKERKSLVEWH", "assay": "SPR, Biacore T200; mouse IL-5Rα-Fc captured on anti-human IgG (Fc); cm1B12 as analyte; bivalent analyte model", "experimental": "The binding activity of the cm1B12 antibody to mouse IL-5Rα-Fc was analyzed using Biacore T200. Anti-Human IgG (Fc) was immobilized at about 9000 RU onto CM5 sensor chip (GE Healthcare) using Human Antibody Capture Kit (GE Healthcare) according to the attached instruction. Mouse IL-5Rα-Fc (R&D Systems Inc.) dissolved at 1 μg/mL in HBS-EP(+) was captured as a ligand at a flow rate of 30 μL/min for 20 seconds. Then, the cm1B12 antibody serially diluted into concentrations of 1000.00, 333.33, 111.11, 37.04, 12.35, and 4.12 ng/mL was added thereto as an analyte by the multicycle method.\nThe operation was performed under conditions involving a flow rate of 30 μL/min, and a contact time and a dissociation time of 120 seconds and 600 seconds, respectively. The analysis was carried out using Biacore T200 Evaluation software in the Surface bound and Bivalent Analyte mode."}, "[2]": {"biological_target": "T2, mouse IL-5Rα expressed on cells (Ba/F3 cells stably expressing mouse IL-5Rα); Expi293F cells transiently … (mouse, UniProt P21183 18-415)", "T2 construct": "whole, on cells; also called IL-5Rα-expressing Ba/F3 cells; IL5Ra-expressing Ba/F3 cells", "T2 sequence (looked up)": "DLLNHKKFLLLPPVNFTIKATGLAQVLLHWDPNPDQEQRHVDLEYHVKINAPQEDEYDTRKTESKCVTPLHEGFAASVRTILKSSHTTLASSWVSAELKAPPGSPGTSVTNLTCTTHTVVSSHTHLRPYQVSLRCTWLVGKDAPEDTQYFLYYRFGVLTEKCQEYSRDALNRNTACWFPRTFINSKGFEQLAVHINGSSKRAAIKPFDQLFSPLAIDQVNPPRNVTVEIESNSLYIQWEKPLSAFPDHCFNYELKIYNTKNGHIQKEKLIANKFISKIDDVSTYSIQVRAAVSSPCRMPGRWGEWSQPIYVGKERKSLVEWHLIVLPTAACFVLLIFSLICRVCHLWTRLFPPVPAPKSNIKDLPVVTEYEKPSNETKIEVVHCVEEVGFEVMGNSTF", "assay": "flow cytometry on mouse IL-5Rα-expressing Ba/F3 cells, detected with Alexa Fluor 647 goat anti-mouse IgG (H+L), geometric mean fluorescence; parental Ba/F3 cells as negative control", "experimental": "Ba/F3 cells or IL-5Rα-expressing Ba/F3 cells were suspended at a cell density of 1×10⁶ cells/mL in FACS buffer 1. The cell suspension was inoculated at 100 μL/well ([…]) to a 96-well U-form plate. The cm1B12 antibody was diluted into final concentrations of 0.0003, 0.001, 0.003, 0.01, 0.03, 0.1, 0.3, 1, 3, and 10 μg/mL with FACS buffer 1, added at 100 μL/well, and reacted for 1 hour on ice. After washing with FACS buffer 1, Alexa Fluor® 647 Goat anti-mouse IgG (H+L) (Life Technologies Corp.) diluted into 5 μg/mL with FACS buffer 1 was added at 100 μL/well and reacted for 1 hour on ice. After washing with FACS buffer 1, the fluorescence intensity (geometric mean) was measured using a flow cytometer Canto II (Becton, Dickinson and Company)."}}}
{"binder": "B1", "values": [{"measurement": "Kd", "setting": "[1]", "result": 0.0317, "unit": "nM"}, {"measurement": "koff", "setting": "[1]", "result": 0.000126, "unit": "s⁻¹"}, {"measurement": "kon", "setting": "[1]", "result": "4.1e+06", "unit": "M⁻¹ s⁻¹"}, {"measurement": "EC50 (read off the curve)", "setting": "[2]", "result": "~0.05", "unit": "µg/mL"}]}
